Results as given in patent US20110263014A1, “Cleavage of Nanog by Caspases Mediates the Differentiation of Embryonic Stem Cells” (BAYLOR COLLEGE OF MEDICINE, priority 2008, published 2011).
“Also recorded” adds a separate entry of the source.

Legend:
R1 ES cells = assay: Apoptosis rate (counting apoptotic bodies); type: cell-based, mouse; details: over 72 hours post-stimulation with RA
Method: R1 ES cells (1×10^5) were plated into 6-cm dishes on irradiated MEFs and stimulated with RA differentiation medium for up to 72 hours. Cells were fixed with 4% paraformaldehyde (EMS, cat. no. 15710), stained with DAPI and mounted with Vectashield (Vector Lab, cat. no. H1200). The number of apoptotic figures was determined in triplicate per 100 cells. As a positive control, ES cells were incubated with staurosporine (Sigma, cat. no. 55921, 1 μM) for 4 hours.

caspase-3 = molecular target: T1, caspase-3 (Homo sapiens, UniProt P42574); assay: caspase-3 activity assay (CaspGlo) with Nanog cleavage site peptides; type: biochemical; details: FIG. 10B
T1 construct: purchased BD Bioscience 556471
T1 sequence (P42574 29-175 limits assumed): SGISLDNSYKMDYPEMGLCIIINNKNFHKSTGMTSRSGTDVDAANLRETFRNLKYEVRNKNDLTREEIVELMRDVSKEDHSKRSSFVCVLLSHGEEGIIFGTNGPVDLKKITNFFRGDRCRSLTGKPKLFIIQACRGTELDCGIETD
T1 sequence (P42574 176-277 limits assumed): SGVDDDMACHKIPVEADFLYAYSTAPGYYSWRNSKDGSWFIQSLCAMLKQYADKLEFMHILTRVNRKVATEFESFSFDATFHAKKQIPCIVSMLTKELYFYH
Method: Trypsinized ES cells (R1; 200,000; D3 250,000) were plated into 6 wells containing normal ES cell medium, and on the next day the medium was changed to 1 μM RA differentiation medium. Cells were harvested with trypsin-EDTA (Invitrogen, cat. no. 25300-054), and protein extracts were made in 0.1% CHAPS buffer, pH 7.2 (50 mM Hepes; 150 mM KCl; 1× protease inhibitors (Roche, cat. no. 1697498001); 2 mM Na fluoride and orthovanadate, respectively, at specified time points. The CaspGlo (Promega, cat. no. G8091) kit was used to directly measure caspase activity. Before determining caspase activity, we tested the system for variability within the dynamic range, using recombinant caspase-3 (BD Bioscience, cat. no. 556471). The signal was measured with the Wallac 1429 Victorll instrument (Perkin-Elmer, Wellesley, Mass.).

## CC1=C(/C=C/C(C)=C/C=C/C(C)=C/C(=O)O)C(C)(C)CCC1 [RA, retinoic acid]
R1 ES cells
  percentage of cells undergoing apoptosis: essentially no increases

## DSPD: hNanog caspase cleavage site peptide
caspase-3
  inhibition / targeting of caspase-3 by cleavage site peptide: effectively inhibit caspase-3

## GSPD: mNanog caspase cleavage site peptide
caspase-3
  inhibition / targeting of caspase-3 by cleavage site peptide: effectively inhibit caspase-3; also recorded: still targeted by caspase-3
